In patent publication US11078245B2, “Colon and pancreas cancer peptidomimetics” (PRECISION BIOLOGICS, INC., priority 2010, dated 2021):
Where “and” joins values, the source holds several entries; their conditions need not be identical. Equal values may be shown once. Read-outs that look alike come from different tables or passages of the source.

Legend:
[1] = system: Colon cancer; experiment: Immunohistochemistry: human tissues with biotinylated NEO-101; type: binding
Source text: (§1) Consequently, the positively stained “normal” tissues may have already undergone genotypic changes (“pre-cancerous”) resulting in the expression of the aberrantly glycosylated MUC5AC antigen that could lead to detection of carcinoma with NEO-101.

[2] = system: Normal colon; experiment: as above; type: binding
Source text: as §1

[3] = system: Normal pancreas; experiment: as above; type: binding
Source text: as §1

[4] = system: Normal prostate; experiment: as above; type: binding
Source text: as §1

[5] = system: Normal uterus; experiment: as above; type: binding
Source text: as §1

[6] = system: Pancreas cancer; experiment: as above; type: binding
Source text: as §1

[7] = system: Uterus cancer; experiment: as above; type: binding
Source text: as §1

[8] = system: colorectal and pancreatic cancer biopsies; experiment: IHC staining of patient tumor biopsies with NEO-101; type: binding, human; settings: colorectal and pancreatic biopsies together
Protocol: Patients enrolled on the clinical diagnostic study agreed to provide their tumor biopsy or surgical specimen to be stained immunohistochemically with NEO-101. Tumor sections were prepared as slides, and two additional slides were prepared for negative control (human IgG1) and positive control (cytokeratin) staining to ensure quality controls for the IHC method. More specifically, tumor biopsy specimens from colorectal and pancreas cancer patients were deparaffinized at about 60° C. for 30 min prior to staining with NEO-101. Subsequently, all staining steps were carried out at about 25° C. Slides (4 μm) were blocked with Peroxo-Bloc® inhibitor (Zymed Laboratories) for about 2 min, rinsed with phosphate-buffered saline (PBS), and blocked with CAS (Zymed) for an additional about 10 minutes. Slides were stained with about 10 μg/mL of biotin-labeled NEO-101 for 1 hour, and washed three times with PBS containing 0.05% Tween®-20 non-ionic detergent. […]
All antibodies were biotinylated prior to use and tested independently at various concentrations using human tumor tissues known to react with the antibodies. Primary antibody (NEO-101) was used at about 10 μg/mL, detected with streptavidin-horseradish peroxidase conjugate, and mounted on slides. A positive staining scale ranging from +1 to +5 was applied to the staining results, measured by light microscopy. […]

[9] = Pharmacokinetics; type: in vivo, mice; settings: for serum half-life (t½): single dose 100 mg/kg
Protocol: To determine whether gender impacted the disposition of NEO-101 in vivo, each treatment group contained four males and four females. Clearance, Cmax and half-life following a single dose of 10 or 100 mg/kg were compared by non-parametric Mann-Whitney test. […] However, the serum half-life of NEO-101 was shorter in females than in males. […] However, it is likely that this is a spurious observation, arising from high inter-animal variability, as this difference in half-life was not replicated following multiple doses, regardless of dose level.
The data provides useful guidance for the dosing schedule of possible therapeutic regimes. Mice injected intravenously with 10 mg/kg of NEO-101 may be used for comparison to the doses used in therapy regiments for humans, for instance.

[10] = system: lung tumor tissue; experiment: Immunohistochemistry of lung tumor tissue; type: binding; settings: 10 μg/ml biotinylated antibody
Protocol: Slides were deparaffinized, rehydrated and antigen retrieval was performed. Slides were then stained with 10 μg/ml biotinylated NEO-101 antibody and then streptavidin-HRP was applied for color development. Slides were counter stained with H.E., hydrated and fixed. The results
The specificity of NEO-101 for pancreatic and colorectal tumor tissue was further shown by staining lung tumor tissue. While there was significant binding to these tissues with a commercial antibody that recognizes normal MUC5AC, there was no reactivity of NEO-101 with these lung tumor tissues.

B1: NEO-101: Chimeric NEO-101 antibody, engineered in CHO-DG44 production cell clone 4B7; targets a variant of MUC5AC (protein)
light: QVVLTQSPVIMSASPGEKVTMTCSASSSISYMYWYQQKPGTSPKRWIYDTSKLASGVPARFSGSGSGTSYSLTISNMEAGDAATYYCHQRDSYPWTFGGGTNLEIK
heavy: QVQLKESGPDLVAPSQSLSITCTVSGFSLSKFGVNWVRQPPGKGLEWLGVIWGDGSTSYNSGLISRLSISKENSKSQVFLKLNSLQADDTATYYCVKPGGDYWGHGTSVTVSS
[1]
  Tissue staining intensity +1: (15%)
  Tissue staining intensity +2: (8%)
  Tissue staining intensity +4: (10%)
  Tissue staining intensity Negative: (56%)
  Tissue staining intensity Weak: (10%)
[1]; samples/total
  Tissue staining intensity +1: 7/48
  Tissue staining intensity +2: 4/48
  Tissue staining intensity +4: 5/48
  Tissue staining intensity Negative: 27/48
  Tissue staining intensity Weak: 5/48
  Total Positive: 21/48
[2]
  Tissue staining intensity +2: (25%)
  Tissue staining intensity Negative: (75%)
  Total Positive: (25%)
[2]; samples/total
  Tissue staining intensity +2: 1/4
  Tissue staining intensity Negative: 3/4
  Total Positive: one of four and 1/4
[3]
  Tissue staining intensity Negative: (100%)
  Total Positive: (0%)
[3]; samples/total
  Tissue staining intensity Negative: 3/3
  Total Positive: 0/3
[4]
  Tissue staining intensity Negative: (100%)
  Total Positive: (0%)
[4]; samples/total
  Tissue staining intensity Negative: 4/4
  Total Positive: 0/4
[5]
  Tissue staining intensity Negative: (100%)
  Total Positive: (0%)
[5]; samples/total
  Tissue staining intensity Negative: 12/12
  Total Positive: 0/12
[6]
  Tissue staining intensity +1: (16%)
  Tissue staining intensity +2: (6%)
  Tissue staining intensity +3: (17%)
  Tissue staining intensity +4: (9%)
  Tissue staining intensity Negative: (52%)
[6]; samples/total
  Tissue staining intensity +1: 17/108
  Tissue staining intensity +2: 7/108
  Tissue staining intensity +3: 18/108
  Tissue staining intensity +4: 10/108
  Tissue staining intensity Negative: 56/108
  Total Positive: 52/108
[7]
  Tissue staining intensity +2: (5%)
  Tissue staining intensity +3: (19%)
  Tissue staining intensity Negative: (76%)
  Total Positive: (24%)
[7]; samples/total
  Tissue staining intensity +2: 2/42
  Tissue staining intensity +3: 8/42
  Tissue staining intensity Negative: 32/42
  Total Positive: 10/42
[8]
  patient tumor samples considered positive (+1 to +5): 79%
  patient tumor samples considered positive, samples/total: 30 of 38 and 30/38
[9]; females
  serum half-life (t½): 109.5 ± 14.72 h
[9]; males
  serum half-life (t½): 285.4 ± 139.5 h
[9]; mice
  clearance: low clearance
  volume of distribution: limited volume of distribution
[9]; single dose of 10 or 100 mg/kg
  gender-specific differences in clearance or Cmax: No significant gender-specific differences were observed
[10]
  reactivity with lung tumor tissues: no reactivity
